One data set has as its target SAMHD1 T592E (Homo sapiens, UniProt Q9Y3Z3 1-626, T592E). Nature of the data set: fluorescence anisotropy. For orientation: Fluorescence polarisation rises when a labelled molecule tumbles more slowly, as on binding a larger partner.
The next data set concerns the target SAMHD1 wild-type (Homo sapiens, UniProt Q9Y3Z3 1-626). The data set is described as follows: fluorescence anisotropy.

Chain of SAMHD1 T592E (Q9Y3Z3 whole entry T592E): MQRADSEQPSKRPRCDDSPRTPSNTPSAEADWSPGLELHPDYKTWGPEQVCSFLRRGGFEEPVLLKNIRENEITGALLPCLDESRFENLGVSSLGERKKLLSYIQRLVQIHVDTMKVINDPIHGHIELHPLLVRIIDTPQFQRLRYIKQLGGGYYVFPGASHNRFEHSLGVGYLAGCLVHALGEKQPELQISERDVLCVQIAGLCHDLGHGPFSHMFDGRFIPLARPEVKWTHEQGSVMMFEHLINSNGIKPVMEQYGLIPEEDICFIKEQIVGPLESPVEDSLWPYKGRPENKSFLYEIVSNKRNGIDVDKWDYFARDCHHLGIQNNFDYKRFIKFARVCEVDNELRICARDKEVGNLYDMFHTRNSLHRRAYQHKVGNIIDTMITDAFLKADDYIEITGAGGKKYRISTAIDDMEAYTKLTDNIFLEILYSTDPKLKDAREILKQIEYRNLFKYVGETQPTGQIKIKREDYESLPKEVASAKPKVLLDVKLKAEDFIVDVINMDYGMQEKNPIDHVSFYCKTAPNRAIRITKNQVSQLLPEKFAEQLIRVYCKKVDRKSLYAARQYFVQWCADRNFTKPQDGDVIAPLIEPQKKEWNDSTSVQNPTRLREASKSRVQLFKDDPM
Chain of SAMHD1 wild-type (Q9Y3Z3 whole entry): as the sequence (Q9Y3Z3 whole entry T592E) above, with E592T counted along it

B1: 5'FAM-ssDNA57 (ssDNA)
DNA: TGGAGAATCCCGGTGCCGAGGCCGCTCAATTGGTCGTAGACAGCTCTAGCACCGCTT
Turning to B1, binding in the data set with SAMHD1 T592E was put at a Kd of 431 ± 25 nM.

B2: 5'FAM-PsDNA5 (XNA)
DNA: CGCCT
modifications: phosphorothioate at every internucleotide linkage, mixed Rp/Sp
With B2, the Kd (commonly the constant that tells how readily two partners part at equilibrium) with SAMHD1 wild-type was determined as 119 ± 7 nM; with SAMHD1 T592E, 283 ± 8 nM.

The values are drawn from paper PMC9303311.
